Results: US20120195897A1 (US Dept. of Health and Human Services, published 2012)

Biological target: T1, IGF ligand 2 (IGF-2) (human, UniProt P01344 25-91)
T1 construct: Used as antigen in ELISA and as stimulus (10 nM) on MCF-7 cells; also called insulin-like growth factor 2
Experiment: ELISA

T1 sequence (P01344 25-91 limits assumed): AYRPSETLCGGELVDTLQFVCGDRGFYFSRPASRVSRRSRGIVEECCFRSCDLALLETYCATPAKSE

B1: m636 (VHH)
VHH: QVQLVQSGGGLVQPGGSLRLSCAASYYSLQHDNFPYTFMSWVRQAPGQRLEWVSGISGSGGSTYYADSVKGRFTISRDNSKNTLYLQMNTLRAEDTAMYYCARIRWLQDLDYWGQGTLVTVSS
notes: Human VH single domain antibody (dAb) selected from phage library m91; also called dAb m636; IGF-2 dAb
binding result: binds
